Where a chain is given by its changes, count along the chain named. Names and notes keep the numbering of the source.

Test [1] addresses T1, human ALPP (alkaline phosphatase, placental type) expressed on the surface of CHO cells (human, UniProt P05187 23-506). Description: cell-based or functional assay.
The target of test [2] is T2, human ALPL (tissue non-specific alkaline phosphatase) expressed on the surface of CHO cells (human, UniProt P05186 18-501).
T2 sequence (looked up): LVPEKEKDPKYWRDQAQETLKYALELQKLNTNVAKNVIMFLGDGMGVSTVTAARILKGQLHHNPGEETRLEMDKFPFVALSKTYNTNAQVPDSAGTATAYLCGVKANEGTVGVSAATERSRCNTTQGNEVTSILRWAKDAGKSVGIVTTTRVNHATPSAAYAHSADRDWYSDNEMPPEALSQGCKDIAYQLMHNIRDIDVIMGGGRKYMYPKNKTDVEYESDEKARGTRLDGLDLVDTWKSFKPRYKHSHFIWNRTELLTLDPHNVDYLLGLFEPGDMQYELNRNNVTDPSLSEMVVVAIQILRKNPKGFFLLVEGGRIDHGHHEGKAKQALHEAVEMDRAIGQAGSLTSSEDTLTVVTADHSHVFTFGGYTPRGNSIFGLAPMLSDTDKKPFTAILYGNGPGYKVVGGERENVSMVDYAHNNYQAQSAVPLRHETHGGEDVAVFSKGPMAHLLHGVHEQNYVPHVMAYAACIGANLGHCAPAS
In words: cell-based or functional assay.

In test [3] the target is T3, human ALPI (intestinal alkaline phosphatase) expressed on the surface of CHO cells (human, UniProt P09923 20-503).
T3 sequence (looked up): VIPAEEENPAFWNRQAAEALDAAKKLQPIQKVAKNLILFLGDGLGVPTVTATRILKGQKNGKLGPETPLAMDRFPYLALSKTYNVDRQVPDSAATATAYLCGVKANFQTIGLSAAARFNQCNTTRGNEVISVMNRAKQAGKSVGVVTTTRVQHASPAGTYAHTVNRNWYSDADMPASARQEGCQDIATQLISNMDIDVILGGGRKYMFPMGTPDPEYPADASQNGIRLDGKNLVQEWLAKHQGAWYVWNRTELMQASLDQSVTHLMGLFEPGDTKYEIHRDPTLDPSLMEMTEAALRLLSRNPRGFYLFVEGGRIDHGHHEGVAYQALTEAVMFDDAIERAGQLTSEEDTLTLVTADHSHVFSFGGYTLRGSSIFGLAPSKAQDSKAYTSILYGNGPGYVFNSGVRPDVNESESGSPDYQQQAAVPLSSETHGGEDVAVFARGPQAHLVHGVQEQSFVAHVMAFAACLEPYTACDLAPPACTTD
Description: cell-based or functional assay.

For test [4], the target named is T2, human ALPL (tissue non-specific …). Description: flow cytometry, CHO-ALPL cells. In general terms: In flow cytometry, cells or beads pass a laser one at a time.
Test [5] has as its target T3, human ALPI (intestinal alkaline …). In words: flow cytometry on CHO-ALPI cells.
The target in test [6] is T1, human ALPP (alkaline phosphatase, …). In words: flow cytometry on CHO-ALPP cells, apparent KD (KDapp). Summed up: (§1)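 Cell-surface binding to CHO cells stably transfected with human ALPP, ALPPL2, ALPI or ALPL; cells detached with 0.1% EDTA/PBS, incubated with biparatopic VHH-hFc drug conjugates over a concentration range for 1 hr on ice. Bound agent detected with FITC anti-human Ab (30 min, ice, dark) by flow cytometry; KDapp derived from binding.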

Test [7] has as its target T4, human ALPPL2 (alkaline phosphatase, germ cell type) expressed on the surface of CHO cells (human, UniProt P10696 20-503).
T4 construct: whole, on cells; The cell-surface form has none; also called CHO-ALPPL2; hALPPL2
In words: flow cytometry on CHO-ALPPL2 cells, apparent KD (KDapp). In outline: as §1

Test [8] deals with T4, human ALPPL2 (alkaline phosphatase, …). Description: cell-based or functional assay.
For test [9], the target named is T3, human ALPI (intestinal alkaline …). In words: flow cytometry, CHO-ALPI cells.

T1 sequence (P05187 23-506 limits assumed): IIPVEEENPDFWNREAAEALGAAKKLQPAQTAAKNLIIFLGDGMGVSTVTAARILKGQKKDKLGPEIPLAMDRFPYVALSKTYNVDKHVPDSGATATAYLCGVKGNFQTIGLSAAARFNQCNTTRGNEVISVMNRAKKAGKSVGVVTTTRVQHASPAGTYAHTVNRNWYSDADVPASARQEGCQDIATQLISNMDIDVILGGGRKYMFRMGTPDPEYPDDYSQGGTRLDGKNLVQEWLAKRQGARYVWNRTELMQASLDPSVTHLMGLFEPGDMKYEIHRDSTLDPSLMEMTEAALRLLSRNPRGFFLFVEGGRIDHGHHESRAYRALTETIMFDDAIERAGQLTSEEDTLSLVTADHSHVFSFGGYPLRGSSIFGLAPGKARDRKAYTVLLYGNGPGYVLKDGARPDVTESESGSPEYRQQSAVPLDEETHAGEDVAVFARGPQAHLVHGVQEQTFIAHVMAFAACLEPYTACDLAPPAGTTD
T4 sequence (P10696 20-503): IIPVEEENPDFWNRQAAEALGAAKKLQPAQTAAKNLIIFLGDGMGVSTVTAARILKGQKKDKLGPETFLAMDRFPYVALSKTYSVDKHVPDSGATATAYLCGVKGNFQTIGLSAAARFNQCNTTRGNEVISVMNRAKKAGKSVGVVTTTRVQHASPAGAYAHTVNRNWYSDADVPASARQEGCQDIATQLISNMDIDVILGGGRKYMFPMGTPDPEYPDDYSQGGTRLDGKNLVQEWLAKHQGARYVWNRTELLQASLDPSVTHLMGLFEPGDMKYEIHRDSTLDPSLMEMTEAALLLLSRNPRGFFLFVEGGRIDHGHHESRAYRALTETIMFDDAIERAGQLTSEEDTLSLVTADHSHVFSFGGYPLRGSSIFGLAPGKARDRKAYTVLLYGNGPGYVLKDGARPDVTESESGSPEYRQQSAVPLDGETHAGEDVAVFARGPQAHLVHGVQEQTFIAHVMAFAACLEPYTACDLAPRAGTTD

B1: D10 A06-hFc (S239/442C T366Y/Y407T), [G4S]1 linker, MC-vc-PAB-MMAE conjugate, #676 (Fc fusion, DAR 4)
chain 1: QVQLVESGGGLVQPGGSLRLSCAASGSIFSVNTMGWYRQAPGKQRDLVAVATSGGTIHYADSVKGRFTISRDNAKNTVYLQMNSLKPEDTAVYYCNLVVPYGMIAGDHDYWGQGTKVTVSSGGGGSEPKSSDKTHTCPPCPAPELLGGPCVFLFPPKPKDTLMISRTPEVTCVVVDVSHEDPEVKFNWYVDGVEVHNAKTKPREEQYNSTYRVVSVLTVLHQDWLNGKEYKCKVSNKALPAPIEKTISKAKGQPREPQVYTLPPSRDELTKNQVSLYCLVKGFYPSDIAVEWESNGQPENNYKTTPPVLDSDGSFFLYSKLTVDKSRWQQGNVFSCSVMHEALHNHYTQKSLCLSPGK
chain 2: QVHLVESGGGLVQAGGSLRLSCAASGRTFLSMGWFRQAPGKEREFVAAISWTGGSTGYADSVKGRFTISRESDKETMYLQMNSLKPEDTAVYYCAARGDVYYGGDDATRYKYWGQGTQVTVSSGGGGSEPKSSDKTHTCPPCPAPELLGGPCVFLFPPKPKDTLMISRTPEVTCVVVDVSHEDPEVKFNWYVDGVEVHNAKTKPREEQYNSTYRVVSVLTVLHQDWLNGKEYKCKVSNKALPAPIEKTISKAKGQPREPQVYTLPPSRDELTKNQVSLTCLVKGFYPSDIAVEWESNGQPENNYKTTPPVLDSDGSFFLTSKLTVDKSRWQQGNVFSCSVMHEALHNHYTQKSLCLSPGK
modifications: MC-vc-PAB-MMAE on Cys of S239C and S442C (EU numbering)
notes: Biparatopic knob-into-hole VHH-hFc heterodimer, DAR 4; The assignment of T366Y to the first named VHH and Y407T to the second follows the order of the name; No paragraph spells out this pair; also called D10-A06-hFc-vcPAB-MMAE; D10-A06 hFc-vc-MMAE
Consider B1, for which it took 5 nM to reach half-maximal inhibition in test [1] (IC50 at 96 h, cell-killing of CHO-ALPP cells). For the same molecule, the “IC50 at 96 h, cell-killing of CHO-ALPL cells” value (from here on “IC50 … of CHO-ALPL cells”) in test [2] is more than 1000 nM. Further, the “IC50 at 96 h, cell-killing of CHO-ALPI cells” value in test [3] is more than 1000 nM. Further, in [4], the binding result was “no binding (tested: 350 nM (highest concentration))”. The “MFI on CHO-ALPI cells at 350 nM as percent of MFI on CHO-ALPP cells (KDapp not-determinable)” value in [5] was not above 1%. The Kd in test [6] was determined as 14.4 nM; in test [7], 5 nM.

B2: D10 E10-hFc (S239/442C T366Y/Y407T), [G4S]1 linker, MC-vc-PAB-MMAE conjugate, #678 (Fc fusion, DAR 4)
chain 1: B1 chain 1
chain 2: QVQLVESGGGLVQAGGSLRLSCAVSGRALSDYNIGWFRQAPGKEREFVARKTWDGSSTRYDDSVKGRFTVSIEDAKNTAYLQMSSLKTEDTAVYYCAAGRYSRARGWEYDYWGQGTQVTVSSGGGGSEPKSSDKTHTCPPCPAPELLGGPCVFLFPPKPKDTLMISRTPEVTCVVVDVSHEDPEVKFNWYVDGVEVHNAKTKPREEQYNSTYRVVSVLTVLHQDWLNGKEYKCKVSNKALPAPIEKTISKAKGQPREPQVYTLPPSRDELTKNQVSLTCLVKGFYPSDIAVEWESNGQPENNYKTTPPVLDSDGSFFLTSKLTVDKSRWQQGNVFSCSVMHEALHNHYTQKSLCLSPGK
modifications: MC-vc-PAB-MMAE on Cys of S239C and S442C (EU numbering)
notes: Biparatopic knob-into-hole VHH-hFc heterodimer, DAR 4; also called D10-E10-hFc-vcPAB-MMAE; D10-E10 hFc-vc-MMAE
B2: in [8], the midpoint of inhibition, the IC50 at 96 h, cell-killing of CHO-ALPPL2 cells, lay at 12.8 nM. Also, the “IC50 … of CHO-ALPL cells” value in test [2] is more than 1000 nM. Also, the “IC50 at 96 h, cell-killing of CHO-ALPI cells (estimated from data extrapolation)” value in test [3] was approximately 972 nM. For the same molecule, the binding result in test [4] and in [9] was “no binding (tested: 350 nM (highest concentration))” each time. For the same molecule, the Kd in [6] is 6.9 nM; in test [7], 5 nM.

B3: D10 F05-hFc (S239/442C T366Y/Y407T), [G4S]1 linker, MC-vc-PAB-MMAE conjugate, #679 (Fc fusion, DAR 4)
chain 1: B1 chain 1
chain 2: B2 chain 2 with V24A, L29F, S30G, K51R, E73D, D74N, S84N, A104V
modifications: MC-vc-PAB-MMAE on Cys of S239C and S442C (EU numbering)
notes: Biparatopic knob-into-hole VHH-hFc heterodimer, DAR 4; also called D10-F05-hFc-vcPAB-MMAE; D10-F05 hFc-vc-MMAE
With B3, the “IC50 at 96 h, cell-killing of CHO-ALPPL2 cells” value in test [8] was 16.1 nM. Also, the “IC50 … of CHO-ALPL cells” value in [2] was more than 1000 nM. Also, the “IC50 at 96 h, cell-killing of CHO-ALPI cells” value in test [3] is more than 1000 nM. For the same molecule, the binding result in test [4] and in test [9] was “no binding (tested: 350 nM (highest concentration))” throughout. The Kd in test [6] turned out to be 6.6 nM; in [7], 5.2 nM.

In general, IC50 refers to the concentration at which inhibition is half-maximal.

The values are drawn from US20260216242A1 (ALMAC DISCOVERY, published 2026).
